Assay: Reactivity of purified antibodies with various gangliosides (ELISA)
Format: binding
Conditions: antibody 10 μg/ml, 20 pmol/well; FIG. 22
Protocol: Each ganglioside (2 nmol) was dissolved in […] of ethanol solution containing 10 μg of dipalmitoylphosphatidylcholine (manufactured by SIGMA) and 5 μg of cholesterol (manufactured by SIGMA). In each well of a 96 well plate for ELISA (manufactured by Greiner), 20 μl of the solution (becomes 20 pmol/well) or 20 μl of the solution diluted with ethanol was respectively dispensed, followed by air-drying, and then PBS containing 1% BSA (hereinafter referred to as “1% BSA-PBS”) was added in 100 μl/well and allowed to react at room temperature for 1 hour to thereby block remaining active groups. After discarding 1% BSA-PBS, culture supernatants of transformants or diluted solutions of humanized antibodies were added in 50 μl/well and allowed to react at room temperature for 1 hour. […] After the reaction and subsequent washing with Tween-PBS, an ABTS substrate solution (a solution prepared by dissolving 0.55 g of 2,2′-azinobis(3-ethylbenzothiazoline-6-sulfonic acid) in 1 L of 0.1 M citrate buffer (pH 4.2) and adding 1 μl/ml hydrogen peroxide just before the use) was added in 50 μl/well for color development and the absorbance at 415 nm (hereinafter referred to as “OD415”) was measured.
Reactivity of purified anti-GD3 CDR-grafted antibodies KM8869, KM8870 and KM8871 with GD3 (manufactured by DIA-IATRON) was measured by the ELISA shown in the item 2 of Reference Example. […]

binding to ganglioside: weakly
B1: KM871: anti-GD3 human chimeric antibody; VH SEQ ID NO:49, VL SEQ ID NO:50, human IgG1 and κ C regions (antibody, listed as Mus musculus, V domains shown)
VH: EVTLVESGGDFVKPGGSLKVSCAASGFAFSHYAMSWVRQTPAKRLEWVAYISSGGSGTYYSDSVKGRFTISRDNAKNTLYLQMRSLRSEDSAMYFCTRVKLGTYYFDSWGQGTTLTVSS
VL: DIQMTQTASSLPASLGDRVTISCSASQDISNYLNWYQQKPDGTVKLLIFYSSNLHSGVPSRFSGGGSGTDYSLTISNLEPEDIATYFCHQYSKLPWTFGGGTKLEIKR
modifications: human IgG1 and kappa constant regions

Source: patent US20080166345A1, “MEDICAMENTS COMPRISING GENE RECOMBINANT ANTIBODY AGAINST GANGLIOSIDE GD3” (KYOWA HAKKO KOGYO CO., LTD., priority 2001, published 2008)
